Measured values as given in US10465009B2, “BCMA antigen binding proteins” (Amgen Inc., priority 2012, dated 2019).
Substitutions are numbered along the chain they refer to. “Also recorded” adds a separate entry of the source.

T1: [6x Histidine-SUMO]-huBCMA (SEQ ID NO:350) and carboxy terminal clipped forms (Homo sapiens, UniProt Q02223)
T1 construct: GGS-G3 linker + Avi tag (lost in the clipped species) (C); made in house
T1 sequence (Q02223 5-54): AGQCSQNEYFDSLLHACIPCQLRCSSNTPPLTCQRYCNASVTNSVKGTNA

B1: 29C12.1 ADC (conjugate)
VH: EVQLLESGGALVQPGGSLRLSCAASGFTFSSYAMNWVRQAPGKGLEWVSAISVGGDTYYADSVKGRFTISRDNSKNTLYLQMNSLRAEDTAVYYCAKDQVTMVRGVWYYYGLDVWGQGTTVTVSS
VL: DIVMIQSPLSLPVTPGEPASISCRSSQSLLHSNGNNYLDWYLQKPGQSPHLLISLGSNRTSGVPDRFSGSGSGTDFTLKISRVEAEDVGVYYCMQALQPPRRFGQGTKLEIKR
B2: 32B5.1 ADC (conjugate)
VH: B1 VH with Q81H, M82V, R86S, T90S, M102L
VL: B1 VL with D1V, M4L, V90F
B3: 35D2.1 ADC (conjugate)
VH: B1 VH with D56G, Q81H, M82V
VL: B1 VL with D1V, M4L, V90F
B4: 29C12-MCC-DM1 (conjugate)
VH: B1 VH
VL: B1 VL
B5: 33C7.1 ADC (conjugate)
VH: B1 VH with Q81H, M82V, R86S, T90S, M102L
VL: B1 VL with D1V, M4L, V90F
B6: 29C12: second campaign anti-huBCMA mAb, Vh SEQ ID NO:220, Vl SEQ ID NO:254 (antibody, V domains shown)
VH: B1 VH
VL: B1 VL
B7: 37B2.1 ADC (conjugate)
VH: B1 VH with S31N, Q81H, M82V, R86S, T90S, M102L
VL: B1 VL with D1V, M4L, V90F
B8: 40D7.1 ADC (conjugate)
VH: B1 VH
VL: B1 VL with Y37F, F67L, V90I, Q98R
B9: 32B5-MCC-DM1 (conjugate)
VH: B1 VH with Q81H, M82V, R86S, T90S, M102L
VL: B1 VL with D1V, M4L, V90F

Experiments:
various cell lines = assay: Cell viability control: cell lines exposed to free DM1; type: cell-based, human; details: FIG. 13
Experimental: The ADCs were tested for the ability to target and kill BCMA-expressing myeloma cells. The CellTiter-Glo® Luminescent Cell Viability Assay is a homogeneous method to determine the number of viable cells in culture based on quantitation of the ATP present, which signals the presence of metabolically active cells. The CellTiter-Glo® Assay is applicable to cytotoxicity assays (see http://www.promega.com/products/cell-health-assays/cell-viability-assays/celltiterglo-luminescent-cell-viability-assay/ for more information). The cell viability assay was used to assess the relative killing capacity of various ADCs on various multiple myeloma cell lines and B-cell lines. The protocol provided in the Cell Titer-Glo kit (Promega G7572) was followed. In short, 5×10^3 target cells in 90 ul RPMI 1640, 10% FBS were aliquoted into clear, flat bottom, white walled 96 well plates (Costar #3903). The ADCs were diluted into a 10× stock to create 500 nM maytansine drug equivalents. Each ADC was serially diluted in 2-fold dilutions in RPMI 1640, 10% FBS starting with 500 nM stock. […] Luminescence was read on an EnVision™ Multilabel reader (PerkinElmer) or Analyst HT plate reader (LJL Biosciences). The data was analyzed and graphed using GraphPad Prism™ to determine the relative efficacy of the ADCs on various cancer cell lines. […]

H929 cells = assay: CellTiter-Glo Luminescent Cell Viability Assay, H929; type: cell-based, human
Experimental: The ADCs were tested for the ability to target and kill BCMA-expressing myeloma cells. The CellTiter-Glo® Luminescent Cell Viability Assay is a homogeneous method to determine the number of viable cells in culture based on quantitation of the ATP present, which signals the presence of metabolically active cells. The CellTiter-Glo® Assay is applicable to cytotoxicity assays (see http://www.promega.com/products/cell-health-assays/cell-viability-assays/celltiterglo-luminescent-cell-viability-assay/ for more information). The cell viability assay was used to assess the relative killing capacity of various ADCs on various multiple myeloma cell lines and B-cell lines. The protocol provided in the Cell Titer-Glo kit (Promega G7572) was followed. In short, 5×10^3 target cells in 90 ul RPMI 1640, 10% FBS were aliquoted into clear, flat bottom, white walled 96 well plates (Costar #3903). The ADCs were diluted into a 10× stock to create 500 nM maytansine drug equivalents. Each ADC was serially diluted in 2-fold dilutions in RPMI 1640, 10% FBS starting with 500 nM stock. 10 ul of the 10×ADC dilution series was added to the 90 ul of cells in media (triplicate wells). The highest concentration of ADC was approximately 50 nM maytansine drug equivalents, and the lowest concentration of ADC was approximately 50 pM maytansine drug equivalents. An isotype control ADC (an anti-streptavidin huIgG1 conjugated to MCC-DM1) was included, as well as a media-only control. The plates were incubated at 37° C., 5% CO2 for 96 hours. After incubation, 100 ul of the Substrate Solution (Promega G7572) was added to each well. Luminescence was read on an EnVision™ Multilabel reader (PerkinElmer) or Analyst HT plate reader (LJL Biosciences). The data was analyzed and graphed using GraphPad Prism™ to determine the relative efficacy of the ADCs on various cancer cell lines.
The 2A1CV5-MCC-DM1, 32B5-MCC-DM1 and 29C12-MCC-DM1 ADCs were tested for the ability to target and kill BCMA-expressing myeloma cells (H929). The CellTiter-Glo® Luminescent Cell Viability Assay is a homogeneous method to determine the number of viable cells in culture based on quantitation of the ATP present, which signals the presence of metabolically active cells. The CellTiter-Glo® Assay is applicable to cytotoxicity assays (see http://www.promega.com/products/cell-health-assays/cell-viability-assays/celltiter_glo-luminescent-cell-viability-assay/ for more information). The cell viability assay was used to assess the relative killing capacity of various ADCs on various multiple myeloma cell lines and B-cell lines. The protocol provided in the Cell Titer-Glo kit (Promega G7572) was followed. In short, 5×10^3 target cells in 90 ul RPMI 1640, 10% FBS were aliquoted into clear, flat bottom, white walled 96 well plates (Costar #3903). The ADCs were diluted into a 10× stock to create 500 nM maytansine drug equivalents. Each ADC was serially diluted in 2-fold dilutions in RPMI 1640, 10% FBS starting with 500 nM stock. 10 ul of the 10×ADC dilution series was added to the 90 ul of cells in media (triplicate wells). The highest concentration of ADC was approximately 50 nM maytansine drug equivalents, and the lowest concentration of ADC was approximately 50 pM maytansine drug equivalents. An isotype control ADC (an anti-streptavidin huIgG1 conjugated to MCC-DM1) was included, as well as a media-only control. The plates were incubated at 37° C., 5% CO2 for 96 hours. After incubation, 100 ul of the Substrate Solution (Promega G7572) was added to each well. Luminescence was read on an EnVision™ Multilabel reader (PerkinElmer) or Analyst HT plate reader (LJL Biosciences). The data was analyzed and graphed using GraphPad Prism™ to determine the relative efficacy of the ADCs on various cancer cell lines.

[1] = target: T1, [6x Histidine-SUMO]-huBCMA (SEQ ID NO:350) and carboxy terminal clipped forms; assay: Size exclusion chromatography and LC/MS of antibody complexes with Sumo-huBCMA and its clipped forms; type: binding; details: SEC
Description: To determine which forms of 6×His-SUMO-huBCMA were bound to the anti-huBCMA antibodies, the SEC fractions were isolated and analyzed. Carboxy-terminus fragments of the extracellular domain of human BCMA were generated as clipped forms from the rhuBCMA fusion protein (6×His::Sumo::huBCMA(aa 5-51)::GGS::G3::Avi) of SEQ ID NO:350, as shown in FIG. 45.
A Superdex 200™ 10/30 cm SEC column (GE Healthcare Life Sciences) was used according to the manufacturer's recommendations and run in phosphate buffered saline (PBS). Incubations of antibody with excess levels of sumoBCMA were performed at room temperature for at least 30 minutes.
A Superdex 200™ 10/30 cm SEC column (GE Healthcare Life Sciences) was used according to the manufacturer's recommended condision and run in phosphate buffered saline (PBS). Incubations of antibody with excess levels of sumoBCMA were performed at room temperature for at least 30 minutes.
5 ug of total proteins were reduced in 50 mM Tris/4 M guanidine/9 mM DTT, pH 8.0 at 55° C. for 15 min, and analyzed in Agilent LCTOF system using a Vydac C8 column, 2.1 mm ID×150 mm, […] particle size. […] TOF MS conditions included capillary voltage of 4000 V, drying gas flow at 10 L/min, dry gas temperature at 300° C., nebulizer gas flow at 40 L/min, and fragmentor voltage of 300 V. MS data was analyzed in Agilent MassHunter™ Qualitative Analysis program.

Molecule	killing of huBCMA-expressing myeloma cells (H929) (H929 cells)	other results
COc1cc2cc(c1Cl)N(C)C(=O)C[C@H](OC(=O)[C@H](C)N(C)C(=O)CCS)[C@]1(C)O[C@H]1[C@H](C)[C@@H]1C[C@@](O)(NC(=O)O1)[C@H](OC)/C=C/C=C(\C)C2 [DM1]		killing of cell lines by free drug (various cell lines): killed by free DM1
B1	selectively killed huBCMA-expressing target cells; also recorded: showed cytotoxicity	
B2	selectively killed huBCMA-expressing target cells; also recorded: showed cytotoxicity	
B3	selectively killed huBCMA-expressing target cells; also recorded: showed cytotoxicity	
B4	able to target and kill BCMA-expressing myeloma cells (H929)	
B5	selectively killed huBCMA-expressing target cells; also recorded: showed cytotoxicity	
B6		binding to full-length and truncated forms of huBCMA [1]: bound full-length and truncated forms of BCMA; also recorded: bound all forms of human BCMA
B7	selectively killed huBCMA-expressing target cells; also recorded: showed cytotoxicity	
B8	selectively killed huBCMA-expressing target cells; also recorded: showed cytotoxicity	
B9	able to target and kill BCMA-expressing myeloma cells (H929)	
